Values of other authors in publication PMC12053642, “Oral PRI-002 treatment in patients with MCI or mild AD: a randomized, double-blind phase 1b trial” (Nature Communications, 2025).

System: early AD patients
Design: ADAS-cog: dose or concentration left out as unconfirmed
Settings: cited from earlier work; for deceleration of progression measured by CDR-SB versus placebo: over 18 months, on average
Source text: After two decades of setbacks, the United States Food and Drug Administration (USFDA) full approvals for lecanemab[1] and donanemab[2] presents the beginning of a new decade for AD patients with several more drug candidates holding promise for marketing authorisation in the foreseeable future.

Molecule | ADAS-Cog13 and CDR-SB (700 mg for the first 3 doses and 1400 mg thereafter i.v. every 4 weeks, after 12 weeks of treatment) | deceleration of progression measured by CDR-SB versus placebo | slowed decline on measures of cognition and function than placebo (early AD, at 18 months (CDR-SB, ADAS-cog14, ADCOMS, ADCS-MCI-ADL)) [%] | ADAS-cog (from week 12, most prominent at 6 months)
donanemab: anti-amyloid therapeutic antibody [reference compound] | significant improvement | up to 36% |  | 
lecanemab: anti-amyloid therapeutic antibody, claimed to preferentially target soluble Aβ protofibrils (antibody, chains of the INN, looked up, V domains shown) VH: EVQLVESGGGLVQPGGSLRLSCSASGFTFSSFGMHWVRQAPGKGLEWVAYISSGSSTIYYGDTVKGRFTISRDNAKNSLFLQMSSLRAEDTAVYYCAREGGYYYGRSYYTMDYWGQGTTVTVSS VL: DVVMTQSPLSLPVTPGAPASISCRSSQSIVHSNGNTYLEWYLQKPGQSPKLLIYKVSNRFSGVPDRFSGSGSGTDFTLRISRVEAEDVGIYYCFQGSHVPPTFGPGTKLEIK |  | up to 36% | 27 | symptomatic improvement
